Legend:
[1] = biological target: complement Factor D (fD) (Homo sapiens) (UniProt P00746); assay: inhibition; conditions: control oligo
[2] = biological target: complement Factor D (fD) in C1q-depleted human serum (Homo sapiens) (UniProt P00746); assay: inhibition; conditions: hemolysis; non-specific control oligo
[3] = biological target: complement Factor D (fD) (Homo sapiens) (UniProt P00746); assay: flow; conditions: 2'-F G, 2'-OMe A,C,U, 37 C
[4] = SB1T, 100 nM AFD Fab reduces signal about 75-90%

Chain of complement Factor D (fD) (Homo sapiens) (P00746 26-253): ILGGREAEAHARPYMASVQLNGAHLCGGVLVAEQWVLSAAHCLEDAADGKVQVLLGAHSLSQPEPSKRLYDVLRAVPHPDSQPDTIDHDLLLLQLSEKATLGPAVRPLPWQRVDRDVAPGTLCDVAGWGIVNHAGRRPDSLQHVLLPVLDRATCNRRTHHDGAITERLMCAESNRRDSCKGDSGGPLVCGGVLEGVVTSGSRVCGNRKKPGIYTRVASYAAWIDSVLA
Chain of complement Factor D (fD) in C1q-depleted human serum (Homo sapiens) (P00746 26-253): as above

With C8 non-specific control oligo the activity (% esterase activity) [1] was 105 and the IC50 [2] was over 0.16 µM.
Substance “GGGAGUGUGUACGAGGCAUUAGGCCGCCNNNNNNNNNNNNNNNNNNNNNNNNNNNNNNGGCGGCUUUGAUACUUGAUCGCCCUAGAAGC [N30S library round 6]” has a Kd ([3]; SB1T with BSA and ssDNA, bead-immobilized fD) of 0.0344 µM.
For “GGGAGUGUGUACGAGGCAUUAGGCCGCCNNNNNNNNNNNNNNNNNNNNNNNNNNNNNNGGCGGCUUUGAUACUUGAUCGCCCUAGAAGC [N30S library round 7]”, the Kd [3, 4] was 0.0451 µM.
Substance “GGGAGUGUGUACGAGGCAUUAGGCCGCCNNNNNNNNNNNNNNNNNNNNNNNNNNNNNNGGCGGCUUUGAUACUUGAUCGCCCUAGAAGC [N30S library round 8]” has a Kd [3, 4] of 0.0088 µM.
